According to patent US20220332759A1, “TARGETED PULMONARY DELIVERY COMPOSITIONS AND METHODS USING SAME” (Rutgers, The State University of New Jersey, priority 2019, published 2022):
Ends that are not written are not given here.

Tests used:
[1] = target: T1, human recombinant α3β1 integrin (Homo sapiens, UniProt P05556+P26006); test: Phage binding assay to immobilized recombinant proteins; conditions: increasing molar concentrations, relative to unrelated control peptide
T1 construct: purchased R&D Systems
Experimental: Phage binding to recombinant proteins (α3β1, α6β1, α6β4, NRP-1 and SDC-1) and BSA (Sigma) were performed as described (Cardó-Vila, et al., 2008, PLoS One 3:e3452). Briefly, 100 ng of each of the indicated proteins dissolved in 50 μL PBS were immobilized in microtiter wells overnight (ON) at 4° C. […] After 2 h at RT, wells were gently washed 10 times with PBS, and phage was recovered by host bacterial infection and represented as “Relative TU” as an empirical measure of the biological replicates and controls when compared to one another as described (Arap, W. et al., Nat. Med., 2002, 8:121-127; Cardó-Vila, et al., 2008, PLoS One 3:e3452). Human recombinant proteins α3β1, α6β1, α6β4, NRP-1 and SDC-1 were all commercially obtained from R&D Systems. Recombinant GST and […]-GST were produced in E. coli transformed with the pGEX4T-1 plasmid (Amersham, GE Healthcare) and purified with standard protocols. All synthetic peptides were custom manufactured by Merrifield synthesis and quality-controlled to the necessary specifications (Biomatik and PolyPeptide Laboratories).

A549 cell monolayer = test: Cellular barrier permeability (Transwell) assay and empirical model of phage transport; format: in vitro ADME, human; conditions: A549 cells, different concentrations, 1 h
From the text: To investigate the transport of phage particles across the cellular monolayer, data from the in vitro Transwell assays (FIG. 3E) was used to quantify the parameters of an empirical mathematical model of phage accumulation in the bottom chamber (Equation 1). The mass of phage particles [N(t), measured experimentally as TU] transported across the cellular barrier at time t, was represented by Equation (Eq. 1), as follows:
where, Ns represent the mass of phage particles (TU) in the bottom chamber at saturation; k is the transport rate constant, the inverse of which gives the characteristic time (τ=1/k) of the transport process. The first derivative of Equation 1
provides the time-dependent transport rate of phage particles across the in vitro cellular barrier. Least squares fitting of the model to the experimental data was performed in MATLAB. The transport rate decays exponentially over time at rate k, and its maximal value can be determined at time t=0 as […]

[2] = target: T2, human recombinant α3β1 integrin (human, UniProt P26006 33-991; P05556 21-728); test: competition of phage binding to immobilised α3β1 (FIG. 3B)
T2 construct: Bought protein, 100 ng immobilised in microtiter wells; also called α3β1 integrins

[3] = target: T3, mouse α3β1 integrin expressed on the plasma membrane of AT1 and AT2 alveolar epithelial cells and club cells (mouse, UniProt Q62470 33-1053; P09055 21-798); test: TU count of phage recovered from flow-sorted mouse lung cells after aerosol administration
T3 construct: whole, on cells; Target on lung cells of BALB/c mice after aerosol administration of phage; also called α3β1 integrins in lung tissue; α3β1 integrin in vivo
T3 sequence (Q62470 33-1053, chain 1 of 2): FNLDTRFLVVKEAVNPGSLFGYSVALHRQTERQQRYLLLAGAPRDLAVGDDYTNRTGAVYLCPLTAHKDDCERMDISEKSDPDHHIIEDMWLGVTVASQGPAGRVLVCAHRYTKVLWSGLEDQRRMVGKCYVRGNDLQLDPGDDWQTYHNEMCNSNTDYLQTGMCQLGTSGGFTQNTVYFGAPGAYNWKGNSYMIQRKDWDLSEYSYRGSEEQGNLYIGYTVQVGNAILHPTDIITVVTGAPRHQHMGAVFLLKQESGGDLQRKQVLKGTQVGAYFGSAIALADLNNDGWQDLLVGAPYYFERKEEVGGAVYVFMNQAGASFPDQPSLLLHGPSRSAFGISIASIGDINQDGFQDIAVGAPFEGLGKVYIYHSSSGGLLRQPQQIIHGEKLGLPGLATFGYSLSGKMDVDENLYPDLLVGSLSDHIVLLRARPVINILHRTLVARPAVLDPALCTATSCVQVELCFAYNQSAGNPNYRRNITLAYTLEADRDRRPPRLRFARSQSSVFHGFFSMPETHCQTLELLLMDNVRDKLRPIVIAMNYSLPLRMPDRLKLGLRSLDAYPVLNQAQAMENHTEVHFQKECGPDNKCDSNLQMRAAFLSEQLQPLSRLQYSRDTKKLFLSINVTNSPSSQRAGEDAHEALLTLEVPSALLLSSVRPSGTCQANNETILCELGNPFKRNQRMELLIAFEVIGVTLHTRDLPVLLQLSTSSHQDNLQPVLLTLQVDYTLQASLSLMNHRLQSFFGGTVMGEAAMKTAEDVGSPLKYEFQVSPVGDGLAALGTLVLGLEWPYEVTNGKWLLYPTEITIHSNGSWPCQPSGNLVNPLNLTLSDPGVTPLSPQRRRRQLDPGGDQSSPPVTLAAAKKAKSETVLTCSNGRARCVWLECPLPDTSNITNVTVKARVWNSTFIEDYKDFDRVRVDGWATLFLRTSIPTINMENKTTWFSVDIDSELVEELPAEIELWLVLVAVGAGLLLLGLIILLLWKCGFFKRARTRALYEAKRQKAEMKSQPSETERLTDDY
T3 sequence (P09055 21-798, chain 2 of 2): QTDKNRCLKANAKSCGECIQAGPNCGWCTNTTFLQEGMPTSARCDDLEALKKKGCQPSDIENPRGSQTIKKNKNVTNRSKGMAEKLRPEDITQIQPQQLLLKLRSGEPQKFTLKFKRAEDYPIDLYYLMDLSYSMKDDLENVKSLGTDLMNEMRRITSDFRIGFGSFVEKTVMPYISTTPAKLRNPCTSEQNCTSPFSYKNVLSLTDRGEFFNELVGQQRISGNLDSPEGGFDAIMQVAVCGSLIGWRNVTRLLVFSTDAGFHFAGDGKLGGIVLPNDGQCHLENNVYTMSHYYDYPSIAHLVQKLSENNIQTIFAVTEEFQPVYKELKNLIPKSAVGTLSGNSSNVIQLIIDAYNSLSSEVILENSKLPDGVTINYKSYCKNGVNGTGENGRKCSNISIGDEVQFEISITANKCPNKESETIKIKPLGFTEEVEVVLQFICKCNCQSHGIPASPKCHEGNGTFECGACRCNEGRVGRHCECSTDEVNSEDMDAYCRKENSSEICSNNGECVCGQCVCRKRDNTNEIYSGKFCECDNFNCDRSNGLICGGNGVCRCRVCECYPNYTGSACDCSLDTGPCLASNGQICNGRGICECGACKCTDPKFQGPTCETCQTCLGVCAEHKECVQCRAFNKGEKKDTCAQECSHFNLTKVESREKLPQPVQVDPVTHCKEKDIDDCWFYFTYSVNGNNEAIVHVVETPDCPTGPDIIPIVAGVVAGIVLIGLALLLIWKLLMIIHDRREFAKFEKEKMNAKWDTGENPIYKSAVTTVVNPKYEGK
Experimental: Cells were sorted in an iCyt sy3200 (Sony) cell sorter previously calibrated with compensation beads (UltraComp eBeads, Thermo Scientific). AT1-, AT2-enriched cell populations and macrophages were centrifuged, and the number of phage particles per cell type was determined by TU count.
To further evaluate the bioavailability of [sequence]-displaying phage particles after aerosol administration, the binding capabilities of the phage particles to specific lung cells were determined by flow cytometry. […] Specific cell populations of the lung were isolated and flow cytometry sorted in three main cell populations (FIG. 5A): AT1-enriched population (EPCAM⁺, CD45⁻, CD31⁻, T1α^high); AT2-enriched population (EPCAM⁺, CD45⁻, CD31⁻, Tα^low) and mononuclear phagocytes (EPCAM⁻, CD45⁺, CD31⁻, F4/80⁺). The number of either targeted or control phage particles bound to each cell population was determined by TU counting after infection with a host bacterium.

T2 sequence (P26006 33-991 limits assumed, chain 1 of 2): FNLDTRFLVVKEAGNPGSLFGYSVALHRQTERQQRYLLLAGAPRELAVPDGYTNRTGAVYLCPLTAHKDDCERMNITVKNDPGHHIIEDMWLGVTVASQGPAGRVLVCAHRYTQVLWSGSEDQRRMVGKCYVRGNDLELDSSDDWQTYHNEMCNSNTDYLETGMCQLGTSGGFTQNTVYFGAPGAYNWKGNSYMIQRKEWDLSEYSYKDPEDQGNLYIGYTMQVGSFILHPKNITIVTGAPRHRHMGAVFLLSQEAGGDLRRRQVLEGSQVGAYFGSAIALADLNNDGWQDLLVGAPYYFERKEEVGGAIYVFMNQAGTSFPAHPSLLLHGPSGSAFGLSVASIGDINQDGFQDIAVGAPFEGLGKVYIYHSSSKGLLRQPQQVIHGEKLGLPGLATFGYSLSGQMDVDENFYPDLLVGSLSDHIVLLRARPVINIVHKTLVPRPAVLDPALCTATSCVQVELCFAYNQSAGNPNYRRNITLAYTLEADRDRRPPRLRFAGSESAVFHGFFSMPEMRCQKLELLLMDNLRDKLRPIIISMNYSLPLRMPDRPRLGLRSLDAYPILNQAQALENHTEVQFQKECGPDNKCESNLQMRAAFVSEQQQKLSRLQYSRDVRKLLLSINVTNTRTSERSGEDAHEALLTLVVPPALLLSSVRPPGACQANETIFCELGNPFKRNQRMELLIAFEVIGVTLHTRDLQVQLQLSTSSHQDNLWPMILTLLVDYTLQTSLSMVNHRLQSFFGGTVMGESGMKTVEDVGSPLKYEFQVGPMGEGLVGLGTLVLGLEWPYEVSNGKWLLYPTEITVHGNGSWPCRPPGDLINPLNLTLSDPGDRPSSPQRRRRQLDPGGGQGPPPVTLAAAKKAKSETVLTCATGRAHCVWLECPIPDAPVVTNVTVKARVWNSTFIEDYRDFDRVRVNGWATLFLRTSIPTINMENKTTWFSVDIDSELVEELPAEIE
T2 sequence (P05556 21-728 limits assumed, chain 2 of 2): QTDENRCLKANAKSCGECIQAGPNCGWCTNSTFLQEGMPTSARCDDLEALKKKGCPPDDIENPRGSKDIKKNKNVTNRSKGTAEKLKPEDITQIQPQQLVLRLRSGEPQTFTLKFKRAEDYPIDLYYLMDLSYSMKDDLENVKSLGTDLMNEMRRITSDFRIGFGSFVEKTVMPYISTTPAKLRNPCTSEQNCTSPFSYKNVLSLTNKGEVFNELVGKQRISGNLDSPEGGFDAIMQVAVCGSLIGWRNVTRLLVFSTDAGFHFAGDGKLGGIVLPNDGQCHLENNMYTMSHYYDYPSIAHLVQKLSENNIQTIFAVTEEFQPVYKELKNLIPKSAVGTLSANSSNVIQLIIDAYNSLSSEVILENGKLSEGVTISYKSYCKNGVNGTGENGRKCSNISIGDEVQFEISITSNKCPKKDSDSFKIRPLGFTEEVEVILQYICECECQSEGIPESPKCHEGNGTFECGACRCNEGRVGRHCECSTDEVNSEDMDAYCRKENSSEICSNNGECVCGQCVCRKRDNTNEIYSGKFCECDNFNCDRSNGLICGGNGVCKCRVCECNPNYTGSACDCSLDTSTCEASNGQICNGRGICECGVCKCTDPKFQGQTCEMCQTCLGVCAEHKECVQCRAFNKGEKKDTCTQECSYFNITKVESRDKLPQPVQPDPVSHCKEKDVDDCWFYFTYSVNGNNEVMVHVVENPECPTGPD
T1 sequence (P26006 33-991 limits assumed): as the sequence (P26006 33-991 limits assumed, chain 1 of 2) above
T1 sequence (P05556 21-728 limits assumed): as the sequence (P05556 21-728 limits assumed, chain 2 of 2) above

With “CAKSMGDIVC [index ligand transport peptide; soluble synthetic peptide produced through Merrifield synthesis]” the “inhibition of CAKSMGDIVC-displaying phage binding to α3β1 integrin” value [1] was “Concentration-dependent inhibition”.

In the case of “CAKSMGDIVC-GST: recombinant CAKSMGDIVC-GST produced in E. coli transformed with the pGEX4T-1 plasmid (CAKSMGDIVC-{GST}; cysteine pairing not given here)”, the “competition of CAKSMGDIVC-displaying phage transport in Transwell” value (A549 cell monolayer) is reported as “concentration-dependent ligand-receptor specificity”.

B1: synthetic CAKSMGDIVC peptide (peptide)
peptide: CAKSMGDIVC
notes: Made by Merrifield synthesis; also called cognate synthetic peptide
B1: binds [2].

B2: targeted CAKSMGDIVC-displaying phage particles (other, not shown: large carriers)
chain: CAKSMGDIVC
modifications: not fully specified (bridges); cysteine pairing not given here; also: displayed on phage pIII
notes: Whole phage particle; also called phage clone 2
B2 was tested, and the “fold binding to AT1-enriched population against AT2-enriched cells” value [3] was roughly 2 fold.
